Legend:
Test in all cases: holdup assay
Parameters in all cases: key: below the threshold = too weak to quantify, mostly under pKd 3.1 to 4
Details in all cases: plain residues with an end cap or a label only (N-terminal biotin on a linker: ado-ado)
FRMPD4, Q14CM0 = molecular target: FRMPD4, Q14CM0
GRIP1_3, Q9Y3R0 = molecular target: T1, GRIP1_3, Q9Y3R0
T1 sequence (Q9Y3R0 247-346, limits assumed, looked up): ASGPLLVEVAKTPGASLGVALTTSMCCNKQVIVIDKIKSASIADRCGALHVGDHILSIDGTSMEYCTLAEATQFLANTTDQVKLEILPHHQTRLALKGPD

GORASP1, Q9BQQ3 = molecular target: GORASP1, Q9BQQ3
Chain of GORASP1, Q9BQQ3 (Q9BQQ3 1-208): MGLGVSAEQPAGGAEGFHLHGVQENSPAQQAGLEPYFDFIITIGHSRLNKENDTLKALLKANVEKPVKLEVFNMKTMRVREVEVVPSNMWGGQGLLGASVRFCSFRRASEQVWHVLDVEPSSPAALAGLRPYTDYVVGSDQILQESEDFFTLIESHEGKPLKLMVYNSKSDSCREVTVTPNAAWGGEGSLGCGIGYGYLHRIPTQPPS

LNX1_1, Q8TBB1 = molecular target: LNX1_1, Q8TBB1
Chain of LNX1_1, Q8TBB1 (Q8TBB1 261-371): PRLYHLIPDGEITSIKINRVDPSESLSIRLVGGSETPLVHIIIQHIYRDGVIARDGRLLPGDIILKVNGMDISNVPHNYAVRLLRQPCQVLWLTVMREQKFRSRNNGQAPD

MAGI2_5, Q86UL8 = molecular target: MAGI2_5, Q86UL8
Chain of MAGI2_5, Q86UL8 (Q86UL8 915-1017): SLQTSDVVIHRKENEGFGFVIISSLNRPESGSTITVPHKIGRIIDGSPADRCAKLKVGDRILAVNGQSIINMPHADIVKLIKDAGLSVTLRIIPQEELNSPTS

IL16_4, Q14005 = molecular target: IL16_4, Q14005
Chain of IL16_4, Q14005 (Q14005 1229-1329): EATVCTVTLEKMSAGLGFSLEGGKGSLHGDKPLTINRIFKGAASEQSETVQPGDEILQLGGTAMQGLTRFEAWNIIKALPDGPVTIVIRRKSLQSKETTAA

MAGI2_6, Q86UL8 = molecular target: MAGI2_6, Q86UL8
Chain of MAGI2_6, Q86UL8 (Q86UL8 1141-1229): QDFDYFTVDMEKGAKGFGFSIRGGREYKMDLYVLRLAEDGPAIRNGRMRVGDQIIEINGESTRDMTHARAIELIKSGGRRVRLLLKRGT

DLG4_3, P78352 = molecular target: DLG4_3, P78352
Chain of DLG4_3, P78352 (P78352 306-403): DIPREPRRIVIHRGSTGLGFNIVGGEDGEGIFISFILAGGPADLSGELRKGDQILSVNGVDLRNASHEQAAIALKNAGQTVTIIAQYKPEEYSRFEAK

MAGI1_1, Q96QZ7 = molecular target: MAGI1_1, Q96QZ7
Chain of MAGI1_1, Q96QZ7 (Q96QZ7 1-106): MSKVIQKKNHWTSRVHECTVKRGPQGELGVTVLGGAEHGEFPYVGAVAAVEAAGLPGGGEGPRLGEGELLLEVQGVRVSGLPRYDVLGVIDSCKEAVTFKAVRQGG

GRIP1_5, Q9Y3R0 = molecular target: T2, GRIP1_5, Q9Y3R0
T2 sequence (Q9Y3R0 568-668, limits assumed, looked up): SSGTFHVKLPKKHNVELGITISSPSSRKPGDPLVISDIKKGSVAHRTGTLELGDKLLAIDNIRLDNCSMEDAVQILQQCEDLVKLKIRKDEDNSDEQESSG

CASK, O14936 = molecular target: CASK, O14936
Chain of CASK, O14936 (O14936 487-570): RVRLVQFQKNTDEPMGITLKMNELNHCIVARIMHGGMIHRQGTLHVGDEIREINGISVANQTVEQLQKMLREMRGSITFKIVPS

PDZRN4_1, Q6ZMN7 = molecular target: PDZRN4_1, Q6ZMN7
Chain of PDZRN4_1, Q6ZMN7 (Q6ZMN7 213-318): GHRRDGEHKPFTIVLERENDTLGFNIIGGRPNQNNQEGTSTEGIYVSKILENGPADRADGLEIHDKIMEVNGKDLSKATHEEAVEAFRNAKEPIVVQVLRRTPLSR

RADIL, Q96JH8 = molecular target: T3, RADIL, Q96JH8
T3 sequence (Q96JH8 971-1071, limits assumed, looked up): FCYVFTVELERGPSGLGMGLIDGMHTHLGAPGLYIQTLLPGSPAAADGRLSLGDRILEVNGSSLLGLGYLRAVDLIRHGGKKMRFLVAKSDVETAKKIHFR

Inadl_6, Q8NI35 = molecular target: Inadl_6, Q8NI35
Chain of Inadl_6, Q8NI35 (Q8NI35 1058-1167): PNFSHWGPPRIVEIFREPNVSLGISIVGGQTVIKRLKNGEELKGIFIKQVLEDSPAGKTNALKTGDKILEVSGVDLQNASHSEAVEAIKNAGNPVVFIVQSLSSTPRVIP

GRIP2_7, Q9C0E4 = molecular target: GRIP2_7, Q9C0E4
Chain of GRIP2_7, Q9C0E4 (Q9C0E4 934-1023): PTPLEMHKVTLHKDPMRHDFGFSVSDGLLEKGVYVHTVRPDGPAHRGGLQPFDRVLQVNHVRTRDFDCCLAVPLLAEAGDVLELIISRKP

SNX27, Q96L92 = molecular target: SNX27, Q96L92
TX1BP3, O14907 = molecular target: T4, TX1BP3, O14907
T4 sequence (O14907 10-122, limits assumed, looked up): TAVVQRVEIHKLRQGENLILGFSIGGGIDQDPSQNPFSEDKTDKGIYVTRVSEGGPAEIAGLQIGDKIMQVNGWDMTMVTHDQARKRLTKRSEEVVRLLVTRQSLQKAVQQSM

GRIP2_4, Q9C0E4 = molecular target: GRIP2_4, Q9C0E4
Chain of GRIP2_4, Q9C0E4 (Q9C0E4 446-548): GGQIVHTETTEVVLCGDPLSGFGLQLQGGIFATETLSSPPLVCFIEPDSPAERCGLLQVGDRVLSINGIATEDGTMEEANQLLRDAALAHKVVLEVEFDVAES

LNX1_3, Q8TBB1 = molecular target: LNX1_3, Q8TBB1
Chain of LNX1_3, Q8TBB1 (Q8TBB1 500-596): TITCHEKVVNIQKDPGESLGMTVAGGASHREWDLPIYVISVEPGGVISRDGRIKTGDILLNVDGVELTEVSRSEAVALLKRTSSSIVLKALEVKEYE

SCRIB_2, Q14160 = molecular target: SCRIB_2, Q14160
Chain of SCRIB_2, Q14160 (Q14160 857-960): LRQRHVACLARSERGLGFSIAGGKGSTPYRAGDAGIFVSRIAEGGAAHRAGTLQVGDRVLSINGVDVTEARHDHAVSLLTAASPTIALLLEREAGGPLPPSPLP

SNTB1, Q13884 = molecular target: T5, SNTB1, Q13884
T5 sequence (Q13884 107-205, limits assumed, looked up): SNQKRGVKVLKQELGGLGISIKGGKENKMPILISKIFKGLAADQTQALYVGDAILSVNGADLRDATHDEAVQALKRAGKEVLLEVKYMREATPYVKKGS

FRMPD3, Q5JV73 = molecular target: FRMPD3, Q5JV73
Chain of FRMPD3, Q5JV73 (Q5JV73 12-100): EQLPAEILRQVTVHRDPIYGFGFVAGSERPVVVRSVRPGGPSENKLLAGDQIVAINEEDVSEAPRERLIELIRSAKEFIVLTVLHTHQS

PDZRN3_1, Q9UPQ7 = molecular target: T6, PDZRN3_1, Q9UPQ7
T6 sequence (Q9UPQ7 244-349, limits assumed, looked up): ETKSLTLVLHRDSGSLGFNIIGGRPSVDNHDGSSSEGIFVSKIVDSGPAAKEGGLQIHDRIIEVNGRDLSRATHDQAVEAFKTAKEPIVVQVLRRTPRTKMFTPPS

DLG4_2, P78352 = molecular target: DLG4_2, P78352
Chain of DLG4_2, P78352 (P78352 155-259): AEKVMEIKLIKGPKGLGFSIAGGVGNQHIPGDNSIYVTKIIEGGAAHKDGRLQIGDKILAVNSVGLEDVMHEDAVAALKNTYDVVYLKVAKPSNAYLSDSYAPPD

SCRIB_3, Q14160 = molecular target: SCRIB_3, Q14160
Chain of SCRIB_3, Q14160 (Q14160 999-1103): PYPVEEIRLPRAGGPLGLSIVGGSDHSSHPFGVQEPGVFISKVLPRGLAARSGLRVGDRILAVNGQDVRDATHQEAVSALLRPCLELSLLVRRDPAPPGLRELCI

MAGI1_2, Q96QZ7 = molecular target: MAGI1_2, Q96QZ7
Chain of MAGI1_2, Q96QZ7 (Q96QZ7 456-580): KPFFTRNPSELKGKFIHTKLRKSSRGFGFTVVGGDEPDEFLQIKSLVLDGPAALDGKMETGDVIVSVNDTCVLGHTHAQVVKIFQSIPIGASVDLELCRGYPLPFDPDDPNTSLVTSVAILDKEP

PICK1, Q9NRD5 = molecular target: PICK1, Q9NRD5
Chain of PICK1, Q9NRD5 (Q9NRD5 17-115): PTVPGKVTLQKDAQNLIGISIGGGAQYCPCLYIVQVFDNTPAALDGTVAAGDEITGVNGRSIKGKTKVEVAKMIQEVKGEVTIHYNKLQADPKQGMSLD

Inadl_1, Q8NI35 = molecular target: Inadl_1, Q8NI35
Chain of Inadl_1, Q8NI35 (Q8NI35 113-229): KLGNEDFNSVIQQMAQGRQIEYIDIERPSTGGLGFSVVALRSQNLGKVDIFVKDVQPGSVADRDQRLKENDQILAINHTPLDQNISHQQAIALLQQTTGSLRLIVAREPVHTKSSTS

APBA2_2, Q99767 = molecular target: T7, APBA2_2, Q99767
T7 sequence (Q99767 654-744, limits assumed, looked up): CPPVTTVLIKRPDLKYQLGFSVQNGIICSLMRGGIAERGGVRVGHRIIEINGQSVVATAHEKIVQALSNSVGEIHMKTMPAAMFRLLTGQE

LNX1_2, Q8TBB1 = molecular target: LNX1_2, Q8TBB1
Chain of LNX1_2, Q8TBB1 (Q8TBB1 371-470): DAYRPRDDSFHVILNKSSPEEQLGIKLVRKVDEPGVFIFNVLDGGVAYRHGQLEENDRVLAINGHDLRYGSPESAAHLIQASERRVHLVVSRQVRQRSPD

Chain of FRMPD4, Q14CM0 (Q14CM0 67-160): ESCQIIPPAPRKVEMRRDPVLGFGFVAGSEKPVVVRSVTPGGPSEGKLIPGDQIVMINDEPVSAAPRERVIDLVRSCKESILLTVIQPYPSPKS

B1: OR10G3, Q8NGC4 (peptide)
chain: LRSPRTPSEV
pKd (FRMPD4, Q14CM0): below the threshold
pKd (GRIP1_3, Q9Y3R0): below the threshold
pKd (GORASP1, Q9BQQ3): below the threshold
pKd (LNX1_1, Q8TBB1): below the threshold
pKd (MAGI2_5, Q86UL8): below the threshold
pKd (IL16_4, Q14005): 3.53
pKd (MAGI2_6, Q86UL8): below the threshold
pKd (DLG4_3, P78352): below the threshold
pKd (MAGI1_1, Q96QZ7): below the threshold
pKd (GRIP1_5, Q9Y3R0): below the threshold
pKd (CASK, O14936): 3.61
pKd (PDZRN4_1, Q6ZMN7): below the threshold
pKd (RADIL, Q96JH8): below the threshold
pKd (Inadl_6, Q8NI35): below the threshold
pKd (GRIP2_7, Q9C0E4): below the threshold
pKd (SNX27, Q96L92): below the threshold
pKd (TX1BP3, O14907): 3.51
pKd (GRIP2_4, Q9C0E4): below the threshold
pKd (LNX1_3, Q8TBB1): below the threshold
pKd (SCRIB_2, Q14160): 3.6
pKd (SNTB1, Q13884): below the threshold
pKd (FRMPD3, Q5JV73): below the threshold
pKd (PDZRN3_1, Q9UPQ7): below the threshold
pKd (DLG4_2, P78352): 3.88
pKd (SCRIB_3, Q14160): 3.61
pKd (MAGI1_2, Q96QZ7): 3.92
pKd (PICK1, Q9NRD5): below the threshold
pKd (Inadl_1, Q8NI35): below the threshold
pKd (APBA2_2, Q99767): below the threshold
pKd (LNX1_2, Q8TBB1): below the threshold

B2: EVI5, O60447 (peptide)
chain: RRRESYSTTV
pKd (FRMPD4, Q14CM0): 3.79
pKd (GRIP1_3, Q9Y3R0): below the threshold
pKd (GORASP1, Q9BQQ3): 4.7
pKd (LNX1_1, Q8TBB1): 4.47
pKd (MAGI2_5, Q86UL8): 4.54
pKd (IL16_4, Q14005): below the threshold
pKd (MAGI2_6, Q86UL8): 3.77
pKd (DLG4_3, P78352): 4.44
pKd (MAGI1_1, Q96QZ7): below the threshold
pKd (GRIP1_5, Q9Y3R0): below the threshold
pKd (CASK, O14936): below the threshold
pKd (PDZRN4_1, Q6ZMN7): 4.23
pKd (RADIL, Q96JH8): 4.8
pKd (Inadl_6, Q8NI35): below the threshold
pKd (GRIP2_7, Q9C0E4): below the threshold
pKd (SNX27, Q96L92): 4.79
pKd (TX1BP3, O14907): 4.09
pKd (GRIP2_4, Q9C0E4): below the threshold
pKd (LNX1_3, Q8TBB1): below the threshold
pKd (SCRIB_2, Q14160): below the threshold
pKd (SNTB1, Q13884): 4.65
pKd (FRMPD3, Q5JV73): below the threshold
pKd (PDZRN3_1, Q9UPQ7): 3.83
pKd (DLG4_2, P78352): 5.87
pKd (SCRIB_3, Q14160): 4.48
pKd (MAGI1_2, Q96QZ7): 4.78
pKd (PICK1, Q9NRD5): 4.05
pKd (Inadl_1, Q8NI35): below the threshold
pKd (APBA2_2, Q99767): below the threshold
pKd (LNX1_2, Q8TBB1): 3.99

Source: publication PMC9482650, “Quantitative fragmentomics allow affinity mapping of interactomes” (Nature Communications, 2022)
